Tests used:
[1] = target: native SERCA1a in DDM-solubilized rabbit sarco-endoplasmic reticulum membranes (rabbit) (UniProt P04191)
[2] = target: recombinant wild-type rabbit SERCA1a (sarco-endoplasmic reticulum Ca2+-ATPase, isoform 1a) expressed in S. cerevisiae (rabbit) (UniProt P04191)
[3] = target: native SERCA1a in DDM-solubilized rabbit sarco-endoplasmic reticulum membranes (rabbit) (UniProt P04191); remark: listed apart in the source
[4] = target: recombinant wild-type rabbit SERCA1a (sarco-endoplasmic reticulum Ca2+-ATPase, isoform 1a) expressed in S. cerevisiae (rabbit) (UniProt P04191); remark: listed apart in the source

native SERCA1a in DDM-solubilized rabbit sarco-endoplasmic reticulum membranes (rabbit), sequence (P04191 other isoform, or with tags, fused parts or gaps): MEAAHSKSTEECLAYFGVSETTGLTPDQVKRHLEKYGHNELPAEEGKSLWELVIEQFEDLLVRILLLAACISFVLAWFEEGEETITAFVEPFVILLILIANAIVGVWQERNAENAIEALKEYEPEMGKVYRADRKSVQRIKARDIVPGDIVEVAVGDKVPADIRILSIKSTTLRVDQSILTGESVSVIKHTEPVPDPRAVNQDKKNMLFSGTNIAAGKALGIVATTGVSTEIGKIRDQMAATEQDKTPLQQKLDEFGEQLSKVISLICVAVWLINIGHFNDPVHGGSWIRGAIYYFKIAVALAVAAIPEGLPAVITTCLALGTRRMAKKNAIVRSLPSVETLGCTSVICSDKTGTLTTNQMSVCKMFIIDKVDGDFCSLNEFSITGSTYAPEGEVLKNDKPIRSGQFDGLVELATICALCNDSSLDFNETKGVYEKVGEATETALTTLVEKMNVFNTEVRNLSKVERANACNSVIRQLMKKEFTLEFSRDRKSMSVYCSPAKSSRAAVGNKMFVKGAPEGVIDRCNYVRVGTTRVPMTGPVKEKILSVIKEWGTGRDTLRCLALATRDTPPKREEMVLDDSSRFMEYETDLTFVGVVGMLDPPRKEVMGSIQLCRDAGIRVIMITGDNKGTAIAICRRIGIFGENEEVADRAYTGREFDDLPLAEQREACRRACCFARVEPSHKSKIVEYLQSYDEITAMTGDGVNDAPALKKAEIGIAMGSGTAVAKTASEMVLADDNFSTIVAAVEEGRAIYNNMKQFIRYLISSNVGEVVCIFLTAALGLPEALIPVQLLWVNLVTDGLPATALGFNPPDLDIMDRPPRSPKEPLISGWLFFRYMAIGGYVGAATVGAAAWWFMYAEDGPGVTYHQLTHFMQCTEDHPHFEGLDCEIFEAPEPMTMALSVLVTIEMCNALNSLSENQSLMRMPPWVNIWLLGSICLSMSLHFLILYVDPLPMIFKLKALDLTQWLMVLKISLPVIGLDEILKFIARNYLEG
recombinant wild-type rabbit SERCA1a (sarco-endoplasmic reticulum Ca2+-ATPase, isoform 1a) expressed in S. cerevisiae (rabbit), sequence (P04191 other isoform, or with tags, fused parts or gaps): as above

Row | Substance | SLN:SERCA1a ratio at half-inhibition of the phosphoenzyme level (ratios 1:1 to 1:50) (mol SLN added per mole of SERCA1a) [1] | amplitude of the inhibition of the phosphoenzyme level (dose-response fit) [1] [%] | SLN:SERCA1a ratio at half-inhibition of the phosphoenzyme level (ratios 1:1 to 1:50) (mol SLN added per mole of SERCA1a) [2] | amplitude of the inhibition of the phosphoenzyme level (dose-response fit) [2] [%] | t1/2 of phosphorylation from [γ32P]ATP starting from a calcium-deprived state, Sarcolipin:SERCA1a 10:1 (6.8 without SLN) [2] [s] | IC50 of inhibition of the phosphoenzyme level, as told in the discussion (mol added SLN/mole of SERCA1a) [3] | IC50 of inhibition of the phosphoenzyme level, as told in the discussion (mol of added SLN/mole of SERCA1a) [4]
1 | chemically synthesized S-palmitoylated rabbit sarcolipin (peptide) | 5.9 | 28.1 | 5.1 | 31.2 | 13.5 | 5.6 | 5
2 | chemically synthesized non-palmitoylated rabbit sarcolipin (peptide) | 3.1 | 19 | 4.7 | 28.6 | 13.7 | 2.9 | 4.5

Reference: paper PMC7810697, “Sarcolipin alters SERCA1a interdomain communication by impairing binding of both calcium and ATP” (Scientific Reports, 2021)
